Laboratory results as given in the supplement of paper PMC7125110.
± gives the standard error. Fewer inactive variants are shown than the library holds.

B1: glmS ribozyme (parent)
chain: AUAAAAGCGCCAGAACUACAGAAAUGUAGUUGACGAGGAGGAGGUUUAUCGAAUUUUCGGCGGAUGCCUCCAAA

Tests used:
Conditions in all cases: with glucosamine-6-phosphate
glucosamine-6-phosphate [1] = variants of: B1; test: self-cleavage kobs at 40 uM GlcN6P; higher = faster cleavage; RNA array
Procedure, shortened: (§1)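 Glucosamine-6-phosphate (40 μM to 10 mM) in HEPES/KCl/Mg(OAc)2 buffer was flowed over sequenced MiSeq chips, and tiles were imaged over ~14 h. Barcoded ribozyme variants there had been transcribed in situ by E. coli RNA polymerase and were tracked through a hybridised Cy3 probe at 37 °C. One- or two-exponential decay fits to per-tile medians, normalised to baseline and to non-cleaving reference variants, gave kobs. kcat and KM came from weighted Michaelis–Menten fits across concentrations.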

glucosamine-6-phosphate [2] = variants of: B1; test: self-cleavage kobs at 160 uM GlcN6P; higher = faster cleavage; RNA array
Procedure, shortened: as §1

glucosamine-6-phosphate [3] = variants of: B1; test: self-cleavage kobs at 2500 uM GlcN6P; higher = faster cleavage; RNA array
Procedure, shortened: as §1

glucosamine-6-phosphate [4] = variants of: B1; test: self-cleavage kobs at 10000 uM GlcN6P; higher = faster cleavage; RNA array
Procedure, shortened: as §1

glucosamine-6-phosphate [5] = variants of: B1; test: self-cleavage kobs at 640 uM GlcN6P; higher = faster cleavage; RNA array
Procedure, shortened: as §1

| Variant | self-cleavage kobs at 40 uM GlcN6P (glucosamine-6-phosphate [1]) [s⁻¹] | self-cleavage kobs at 160 uM GlcN6P (glucosamine-6-phosphate [2]) [s⁻¹] | self-cleavage kobs at 2500 uM GlcN6P (glucosamine-6-phosphate [3]) [s⁻¹] | self-cleavage kobs at 10000 uM GlcN6P (glucosamine-6-phosphate [4]) [s⁻¹] | self-cleavage kobs at 640 uM GlcN6P (glucosamine-6-phosphate [5]) [s⁻¹] |
| --- | --- | --- | --- | --- | --- |
| AUAAAAGCGCCAGAACUACAGAAAUGUAGUUGGCGUGGAGGAGGUUUAUCGAAUUUUCGGCGGAUGCCUCCAAA [A33G A36U] | < 1e-05 | < 1e-05 | < 1e-05 | < 1e-05 |  |
| AUAAAAGCGCCAGAACUACAGAAAUGUAGUUGCCGAGGAGGAGGUUUAUCGAAUUUUCGGCGGAUGCCUCGAAA [A33C C71G] | < 1e-05 |  | < 1e-05 |  |  |
| AUAAAAGCGCCAGAACUACAGAAAUGUAGUUGGCGAGGGGGAGGUUUAUCGAAUUUUCGUCGGAUGCCUCCAAA [A33G A39G G60U] | < 1e-05 |  | < 1e-05 | < 1e-05 |  |
| AUAAAAGCGCCAGAACUACAGAAAUGUAGUUGCCGAGGAGGAGGUUUAUCGAAUUUUCGGCGUAUUCCUCCAAA [A33C G63U G66U] | < 1e-05 |  |  | < 1e-05 | < 1e-05 |
| AUAAAAGCGCCAGAACUACAGAAAUGUAGUUGCCGAGGAGGAGGUUUAUCGAAUUUUCGGCGGAUGUCUCCAAA [A33C C67U] | < 1e-05 | < 1e-05 |  |  | < 1e-05 |
| AUAAAAGCGCCAGAACUACAGAAAUGUAGUUGCCGAGGAGGAGGUUUAUCGAAUUUUCGGCGGAUGGCUCCAAA [A33C C67G] | < 1e-05 | < 1e-05 |  | < 1e-05 |  |
| AUAAAAGCGCCAGAACUACAGAAAUGUAGUUGGCGGGGAGGAGGUUUAUCUAAUUUUCGGCGGAUGCCUCCAAA [A33G A36G G51U] | < 1e-05 |  |  | < 1e-05 |  |
| AUAAAAGCGCCAGAACUACAGAAAUGUAGUUGCCGAGGAGGAGGUUUACUGAAUUUUCGGCGGAUGCCUCCAAA [A33C U49C C50U] | < 1e-05 |  |  | < 1e-05 |  |
| AUAAAAGCGCCAGAACUACAGAAAUGUAGUUGGCGAGGAGGGGGUGUAUCGAAUUAUCGGCGGAUGCCUCCAAA [A33G A42G U46G U56A] | < 1e-05 |  | < 1e-05 | < 1e-05 | < 1e-05 |
| AUAAAAGCGCCAGAACUACAGAAAUGUAGUUGGGUAGUAGGAGGUUUAUCGAAUUUUCGGCGGAUGCCUCCAAA [A33G C34G G35U G38U] | < 1e-05 |  |  | < 1e-05 |  |
| AUAAAAGCGCCAGAACUACAGAAAUGUAGUUGCCGAGGAGGAGGUUUAUCCAAUUUUCGGCGCUUGCCUCCAAA [A33C G51C G63C A64U] | < 1e-05 | < 1e-05 |  | < 1e-05 | < 1e-05 |
| AUAAAAGCGCCAGAACUACAGAAAUGUAGUUGCCGAGGAGGAGGUUUAUCGCAUUUUCGGCGGAUGCCUCAAAA [A33C A52C C71A] | < 1e-05 |  | < 1e-05 |  | < 1e-05 |
| AUAAAAGCGCCAGAACUACAGAAAUGUAGUUGCCGAGGAGGAGGUUUAUCGAAAUUCCGGCGGAUGCCUCCAAA [A33C U54A U57C] | < 1e-05 |  | < 1e-05 |  |  |
| AUAAAAGCGCCAGAACUACAGAAAUGUAGUUGCCGAGGAGGAGGUUCAUCGAAUUUUCAGCGGAUGCCUCCAAA [A33C U47C G59A] | < 1e-05 |  |  |  |  |
| AUAAAAGCGCCAGAACUACAGAAAUGUAGUUGCCGAGGAGGAGGCUUAUCGAAUUUUCGGCGGAUGCCUCCAAA [A33C U45C] | < 1e-05 |  |  | 4.65e-05 ± 1.3e-05 |  |
| AUAAAAGCGCCAGAACUACAGAAAUGUAGUUGCAGAGGAGGAGGUUUAUCGAAUUUUCGGCGGAUGCCUCCAAA [A33C C34A] | < 1e-05 | < 1e-05 | < 1e-05 | < 1e-05 | < 1e-05 |
| AUAAAAGCGCCAGAACUACAGAAAUGUAGUUGCCGAGGAGGAGCUUUAUCGAAUUUUCGGCGGAUGCCUCCAAA [A33C G44C] | < 1e-05 | < 1e-05 | < 1e-05 | < 1e-05 | < 1e-05 |
| AUAAAAGCGCCAGAACUACAGAAAUGUAGUUGCCGAGGAGGAGAUUUAUCGAAUUUUCGGCGGAUGCCUCAAAA [A33C G44A C71A] | < 1e-05 |  |  | < 1e-05 |  |
| AUAAAAGCGCCAGAACUACAGAAAUGUAGUUGGUGAGGAGGAGGUUUAUCGAAUUUUCGGCGGAUGCCUCCAAA [A33G C34U] | < 1e-05 |  | < 1e-05 |  |  |
| AUAAAAGCGCCAGAACUACAGAAAUGUAGUUGGCGAGGAGGAGGUUUAUCGUAUUUUCGGCGGAUGCCUCCAAA [A33G A52U] | < 1e-05 |  |  | < 1e-05 | < 1e-05 |
| AUAAAAGCGCCAGAACUACAGAAAUGUAGUUGCCGAGGGGCAGGUUUAUCGACUUUUCGGCGGAUGCCUCCAAA [A33C A39G G41C A53C] | < 1e-05 | < 1e-05 | < 1e-05 | < 1e-05 | < 1e-05 |
| AUAAAAGCGCCAGAACUACAGAAAUGUAGUUGCCGAGGAGGAGCCUUAUCGAAUUUUCGGCGGAUGCCUCCAAA [A33C G44C U45C] | < 1e-05 |  |  | < 1e-05 | < 1e-05 |
| AUAAAAGCGCCAGAACUACAGAAAUGUAGUUGGCGAGGAGGUGGUUUAUCGAAUUUUCGGCGGAUGCCUCCAAA [A33G A42U] | < 1e-05 | < 1e-05 | < 1e-05 | < 1e-05 | < 1e-05 |
| AUAAAAGCGCCAGAACUACAGAAAUGUAGUUGCCGAGGAGGAGGUUUGUCGAAUUUUCGGCGGAUGCCUCCAAA [A33C A48G] | < 1e-05 | < 1e-05 |  | < 1e-05 | < 1e-05 |
